Numbering of substitutions follows the chain as printed. Blank lines part the entries; values can stand above or below the binder they belong to.
Assays:
Human PTH (1-34) [1] = target: T1, Human PTH (1-34) (human, not fully specified); assay: BiaCore, 25° C., 34mer
T1 construct: Synthetic peptide bought from Bachem; also called hPTH (1-34); human 34mer
T1 peptide: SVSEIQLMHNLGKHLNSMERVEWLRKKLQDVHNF

Human PTH (1-34) [2] = target: T1, Human PTH (1-34); assay: BiaCore, 37° C., 34mer
Human PTH (1-84) [3] = target: T2, Human PTH (1-84) (human); assay: ELISA on coated peptide; B cell supernatant
T2 construct: Synthetic peptide bought from Bachem; also called hPTH1-84; Hu 84mer
T2 peptide: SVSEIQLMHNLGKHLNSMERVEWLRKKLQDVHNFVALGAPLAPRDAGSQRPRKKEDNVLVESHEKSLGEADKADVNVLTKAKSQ

Rat PTH (1-84) [4] = target: T3, Rat PTH (1-84) (rat); assay: ELISA on coated peptide; B cell supernatant
T3 construct: Synthetic peptide bought from Bachem; also called Rat 84mer
T3 peptide: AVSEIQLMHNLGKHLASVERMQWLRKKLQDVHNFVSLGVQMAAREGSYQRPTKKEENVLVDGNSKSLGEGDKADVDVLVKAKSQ

Human PTH (18-48) = target: T4, Human PTH (18-48) (human); assay: ELISA on coated peptide; B cell supernatant
T4 construct: Synthetic peptide bought from Bachem; also called hPTH18-48; 18-48mer
T4 peptide: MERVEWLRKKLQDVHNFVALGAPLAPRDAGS

Human PTH (1-84) [5] = target: T2, Human PTH (1-84); assay: BiaCore, 37° C., 84mer
Human PTH (7-84) = target: T5, Human PTH (7-84) (human); assay: ELISA on coated peptide; B cell supernatant
T5 construct: Synthetic peptide bought from Bachem; also called hPTH7-84; 7-84mer
T5 peptide: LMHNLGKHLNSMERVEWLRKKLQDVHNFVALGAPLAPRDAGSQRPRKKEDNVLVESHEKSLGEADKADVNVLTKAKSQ

Human PTH (1-34) [6] = target: T1, Human PTH (1-34); assay: cell-based or functional assay
[7] = target: T6, endogenous human PTH in pooled serum from hemodialysis patients (human, UniProt P01270 32-115, limits assumed); assay: immunoassay-based Scatchard analysis in pooled serum of hemodialysis patients
T6 construct: Circulating hormone; may be a mix of intact PTH and fragments
T6 sequence (looked up): T2 peptide

Human PTH (1-84) [8] = target: T2, Human PTH (1-84); assay: KinExA, solution equilibrium, room temperature
Source text: (§1) Kinetic analysis. […] This method involves solution-based determination of formal affinity measurements at equilibrium. Dual curve analysis with two known antibody concentrations and unknown antigen concentration was used to determine the KD measurements on human 34mer, human 84mer, cynomolgus 84mer and rat 84mer.

Cynomolgus PTH (1-84) = target: T7, Cynomolgus PTH (1-84) (cynomolgus); assay: KinExA, solution equilibrium, room temperature
T7 construct: Synthetic peptide (CS Bio Company for the KinExA measurement and the monkey study); also called cynoPTH (1-84); cynomolgus 84mer
T7 peptide: T2 peptide with V35I, V58I, N76D
Source text: as §1

Rat PTH (1-84) [9] = target: T3, Rat PTH (1-84); assay: KinExA, solution equilibrium, room temperature
Source text: as §1

Human PTH (1-34) [10] = target: T1, Human PTH (1-34); assay: KinExA, solution equilibrium, room temperature
Source text: as §1

[11] = target: T8, PTH peptide RVEWLRKKL (amino acids 20-28, wild type); assay: alanine-scanning peptide array
T8 construct: Peptide on a custom peptide array; also called wild-type peptide
T8 peptide: RVEWLRKKL

[12] = target: T9, PTH 20-28 peptide RVEWLRKKA; assay: alanine-scanning peptide array
T9 construct: Alanine variant; the entry already holds the change
T9 peptide: RVEWLRKKA

[13] = target: T10, PTH 20-28 peptide RVAWLRKKL; assay: alanine-scanning peptide array
T10 construct: Alanine variant; the entry already holds the change
T10 peptide: RVAWLRKKL

[14] = target: T11, PTH 20-28 peptide RVEALRKKL; assay: alanine-scanning peptide array
T11 construct: Alanine variant; the entry already holds the change
T11 peptide: RVEALRKKL

[15] = target: T12, PTH 20-28 peptide RVEWARKKL; assay: alanine-scanning peptide array
T12 construct: Alanine variant; the entry already holds the change
T12 peptide: RVEWARKKL

[16] = target: T13, PTH 20-28 peptide AVEWLRKKL; assay: alanine-scanning peptide array
T13 construct: Alanine variant; the entry already holds the change
T13 peptide: AVEWLRKKL

[17] = target: T14, PTH 20-28 peptide RVEWLRAKL; assay: alanine-scanning peptide array
T14 construct: Alanine variant; the entry already holds the change
T14 peptide: RVEWLRAKL

[18] = target: T15, PTH 20-28 peptide RAEWLRKKL; assay: alanine-scanning peptide array
T15 construct: Alanine variant; the entry already holds the change
T15 peptide: RAEWLRKKL

[19] = target: T16, PTH 20-28 peptide RVEWLRKAL; assay: alanine-scanning peptide array
T16 construct: Alanine variant; the entry already holds the change
T16 peptide: RVEWLRKAL

[20] = target: T17, PTH 20-28 peptide RVEWLAKKL; assay: alanine-scanning peptide array
T17 construct: Alanine variant; the entry already holds the change
T17 peptide: RVEWLAKKL

Human PTH (1-34) [21] = target: T1, Human PTH (1-34); assay: cell-based or functional assay
[22] = target: T18, Human PTH-related peptide (1-34) (human); assay: indirect: competition ELISA on biotinylated human PTH 1-34
T18 construct: Synthetic peptide bought from Bachem; also called PTH-related protein 1-34; PTHrP
T18 sequence (peptide, as listed by the source): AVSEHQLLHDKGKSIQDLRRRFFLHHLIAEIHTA
Description: Biotinylated human PTH 1-34 was bound to streptavidin plates at 1 μg/mL for 30 minutes at RT. The plates were washed 5 times with dH2O. […] The titrated antibody was then transferred to the plate coated with human PTH 1-34 and allowed to bind for 1 hour at RT. After washing the plates 5 times with dH2O, 50 μL of Gt anti-Human (Fc)-HRP at 1 μg/mL was added to each well and the plates held 1 hour at RT. After washing the plates 5 times with dH2O, 50 μL of TMB substrate was added to each well. To stop the reaction, 50 μL of 1M phosphoric acid was added to each well. The plates were read at wavelength 450 nm.

B1: anti-PTH mAb 026 (antibody, IgG2, V domains shown)
VH: QVQLVESGGGVVQPGRSLRLSCAASGFTFSSYGMHWVRQAPGKGLDWVAVISYDGSNKFYADSVKGRFTISRDNSKNTLYLQMNSLRAEDTAVYYCARDHWELLDYWGQGTLVTVSS
VL: DIVMTQTPLSLSVTPGQPASISCKSSQSLLDSDGKTYLYWYLQRSGQPPQLLIHEVSNRFSGVPYRFIGSGSGTDFTLKISRVEAEDVGAYYCMQGKQFPFIFGPGTKVDIK
notes: also called AB-PTH-XG2-026; well 126B1
Kd (Human PTH (1-34) [1]): 3 nM | Kd (Human PTH (1-34) [2]): 9.5 nM

B3: anti-PTH mAb 262 (antibody, IgG2, V domains shown)
VH: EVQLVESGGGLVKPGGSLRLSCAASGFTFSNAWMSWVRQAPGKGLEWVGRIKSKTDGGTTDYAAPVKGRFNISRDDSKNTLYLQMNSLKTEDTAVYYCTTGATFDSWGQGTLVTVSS
VL: DIVMTQSPLSLPVTPGEPASISCRSSQSLLHSNGYKYLDWFLQKPGQSPQLLIYLGSIRASGVPDRFSGSGSGTDFTLKISRVEAEDVGVYYCMQALQTPWTFGQGTKVEIK
notes: also called XG2-262; AB-PTH-XG2-262
OD (Human PTH (1-84) [3]): 1.46 OD450 | OD (Rat PTH (1-84) [4]): 2.11 OD450 | OD (Human PTH (18-48)): 0.25 OD450

B7: anti-PTH mAb 057 (antibody, IgG2, V domains shown)
VH: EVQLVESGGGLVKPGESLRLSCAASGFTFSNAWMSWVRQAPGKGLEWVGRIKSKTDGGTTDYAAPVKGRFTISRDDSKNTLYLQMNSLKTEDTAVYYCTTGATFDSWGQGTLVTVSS
VL: B3 VL with H31Y, F41Y, I58Y
notes: also called AB-PTH-XG2-057; well 119G2
Kd (Human PTH (1-34) [1]): 1 nM | Kd (Human PTH (1-34) [2]): 1 nM

B8: anti-PTH mAb 163 (antibody, IgG2, V domains shown)
VH: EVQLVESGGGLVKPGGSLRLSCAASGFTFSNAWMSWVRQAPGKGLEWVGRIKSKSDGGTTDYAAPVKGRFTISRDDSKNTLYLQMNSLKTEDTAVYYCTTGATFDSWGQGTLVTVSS
VL: B3 VL with S32R, F41Y, I58Y, F76S
notes: also called AB-PTH-XG2-163; well 130A1
Kd (Human PTH (1-34) [1]): 3 nM | Kd (Human PTH (1-84) [5]): 41.1 nM | Kd (Human PTH (1-34) [2]): 7.9 nM

B11: anti-PTH mAb 183 (antibody, human IgG2, V domains shown)
VH: EVQLVQSGAEVKKPGESLKISCKGSGYSFTSYWIGWVRQMPGKGLEWMGIISPGDSDTRYSPSFQGQVTISADKSISTAYLQWSSLKASDTAMYYCARQGDYVWGSYDSWGQGTLVTVSS
VL: DIVMTQTPLSLSVTPGRPASISCKSSQSLLDSDGKTYLYWYLQKPGQPPQLLIYEVSNRFSGVPDRFSGSGSGTDFTLRISRVEAEDVGIYFCMPSIHLWTFGQGTKVEIK
OD (Human PTH (1-84) [3]): 1.4 OD450 | OD (Rat PTH (1-84) [4]): 0.62 OD450 | OD (Human PTH (7-84)): 1.95 OD450 | OD (Human PTH (18-48)): 3.26 OD450 | IC50 (read off the curve) (Human PTH (1-34) [6]): ~100 nM | Kd [7]: 0.06 nM | Kd (Human PTH (1-34) [1]): 0.08 nM | Kd (Human PTH (1-84) [5]): 1 nM | KD High (Human PTH (1-84) [8]): 0.039 nM | KD Low (Human PTH (1-84) [8]): 0.012 nM | Kd (Human PTH (1-84) [8]): 0.022 nM | KD High (Cynomolgus PTH (1-84)): 0.018 nM | KD Low (Cynomolgus PTH (1-84)): 0.005 nM | Kd (Cynomolgus PTH (1-84)): 0.01 nM | KD High (Rat PTH (1-84) [9]): 5 nM | KD Low (Rat PTH (1-84) [9]): 2 nM | Kd (Rat PTH (1-84) [9]): 3 nM | KD High (Human PTH (1-34) [10]): 0.065 nM | KD Low (Human PTH (1-34) [10]): 0.014 nM | Kd (Human PTH (1-34) [10]): 0.033 nM | binding result [11]: binds | binding result [12]: no binding | binding result [13]: no binding | binding result [14]: binds | binding result [15]: no binding | binding result [16]: no binding | binding result [17]: binds | binding result [18]: no binding | binding result [19]: no binding | binding result [20]: no binding | Kd (Human PTH (1-34) [2]): 0.1 nM | IC50 of calcium influx in UMR-106 cells (FLIPR) (Human PTH (1-34) [21]): ~100 nM | binding result [22]: no binding (tested: 5 µg/mL PTHrp)

B13: anti-PTH mAb 168 (antibody, human IgG2, V domains shown)
VH: B11 VH with G26R, S28I, S31N, S52Y, K74M, Y107F
VL: B11 VL with R17Q, R79K, I90V, F92Y, P95Q, H98Q
notes: also called XG2-168; AB-PTH-XG2-168
Kd (Human PTH (1-34) [1]): 2.7 nM | Kd (Human PTH (1-34) [2]): 2.6 nM

Continued by falling Kd (Human PTH (1-34) [1]), values first:

Kd (Human PTH (1-34) [1]): 1 nM | Kd (Human PTH (1-34) [2]): 3.5 nM
B2: anti-PTH mAb 011 (antibody, IgG2, V domains shown)
VH: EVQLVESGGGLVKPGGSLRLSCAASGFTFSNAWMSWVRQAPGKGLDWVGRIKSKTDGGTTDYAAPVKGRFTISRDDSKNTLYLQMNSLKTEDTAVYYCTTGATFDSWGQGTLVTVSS
VL: B3 VL with Y37F, I58Y, S70R
notes: also called AB-PTH-XG2-011; well 133A8

Kd (Human PTH (1-34) [1]): 0.8 nM | Kd (Human PTH (1-34) [2]): 5.2 nM
B5: anti-PTH mAb 140 (antibody, IgG2, V domains shown)
VH: EVQLVESGGGLVKPGGSLTLSCAASGFTFSNAWLSWVRQAPGKGLEWVGRIKSKTDGGTTDYAAPVKGRFTVSRDDSKNTLFLQMNSLKTEDTAVYYCTTGATFDSWGQGTLVTVSS
VL: B3 VL with Y37F, I58Y, K79T
notes: also called AB-PTH-XG2-140; well 132G12

Kd (Human PTH (1-34) [1]): 0.8 nM | Kd (Human PTH (1-84) [5]): 1.6 nM | Kd (Human PTH (1-34) [2]): 0.4 nM
B6: anti-PTH mAb 214 (antibody, IgG2, V domains shown)
VH: EVQLVESGGGLVKPGGSLRLSCAASGSTFSNAWMSWVRQAPGKGLEWVGRIKSRTDGGTADYAAPVKGRFTISRDDLKKTLYLQMNSLKTEDTAVYYCTTYYFDSSGFPFDYWGQGTLVTVSS
VL: B3 VL with S10Y, D39E, F41Y, I53V, I58N, W101L, Q105G
notes: also called AB-PTH-XG2-214; well 267D10

Kd (Human PTH (1-34) [1]): 0.5 nM | Kd (Human PTH (1-34) [2]): 3.3 nM
B4: anti-PTH mAb 124 (antibody, IgG2, V domains shown)
VH: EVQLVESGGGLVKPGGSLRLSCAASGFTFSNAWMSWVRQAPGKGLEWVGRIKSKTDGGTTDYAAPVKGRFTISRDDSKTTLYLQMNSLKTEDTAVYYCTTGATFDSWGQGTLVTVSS
VL: B3 VL with H31Y, Y35F, I58Y
notes: also called AB-PTH-XG2-124; well 135H11

Kd (Human PTH (1-34) [1]): 0.5 nM | Kd (Human PTH (1-34) [2]): 2 nM
B9: anti-PTH mAb 045 (antibody, IgG2, V domains shown)
VH: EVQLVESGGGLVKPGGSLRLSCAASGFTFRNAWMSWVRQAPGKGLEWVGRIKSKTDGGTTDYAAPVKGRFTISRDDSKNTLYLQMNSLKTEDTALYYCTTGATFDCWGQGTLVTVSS
VL: B3 VL with K36N, I58Y, V90I, L97R
notes: also called AB-PTH-XG2-045; well 123B12

Kd (Human PTH (1-34) [1]): 0.35 nM | Kd (Human PTH (1-84) [5]): 7.1 nM | Kd (Human PTH (1-34) [2]): 0.6 nM
B10: anti-PTH mAb 225 (antibody, IgG2, V domains shown)
VH: not shown
VL: B3 VL with D1E, S10N, D39E, F41Y, I58N, A96T, T99I, W101L, Q105G
notes: also called well 275A4

Kd (Human PTH (1-34) [1]): 0.28 nM | Kd (Human PTH (1-34) [2]): 0.64 nM
B12: anti-PTH mAb 168g2/183k (antibody, V domains shown)
VH: B11 VH with G26R, S28I, S31N, S52Y, K74M, Y107F
VL: B11 VL
